Test results reported in paper PMC2137869.
Where “and” joins values, the source holds several entries; their conditions need not be identical. Equal values may be shown once.

Columns and labels:
[1] = target: H chains of non-specific rabbit gamma2 globulin (rabbit); experiment: sucrose density gradient ultracentrifugation
[2] = target: H chains of rabbit gamma2 globulin, first Sephadex G-100 peak (Fraction H) (rabbit); experiment: sucrose density gradient ultracentrifugation

## L chains of non-specific rabbit gamma2 globulin
[1]
  per cent of the H chains in the 7S peak: 60 per cent and 70 per cent
[2]
  per cent of the I131 label (L chains) in the >7S fraction: 9 per cent
